Measurements: publication doi:10.1101/2025.05.23.655777v1

Test system: NCCCC(=O)O
Test: purified protein
Conditions: fixed pyruvate (6 mM), TAPS pH 9.0, 50 µM PLP, 30 °C

Question: For “GABA-AT; GABA aminotransferase 1 (recombinant) (Arabidopsis thaliana)”, which Km is on record?
Answer: Its Km is 590 ± 200 µM.

Question: What about the kcat of the same substance?
Answer: Its kcat is 4.97 s⁻¹.
